# B1: Spindle assembly abnormal protein 5 (Caenorhabditis elegans), Q20010 (parent)
# chain: MNNYDDLPCSIYFKKPTVQEFVDQPRVFEDSEVPAFQEVLQLPQERTKPPVPSTQPIVAAVEVAKKKSCLSAPKPRKEPPSHPALRQKTVAFGKTVNVSQTVEGTSRNSKKVLASTMSAQNTTTTEEQAAENWRDAMKTELQTIRTEIQEETARRQEELNAQNLVKMQELMSNFFQKITIPKQQAIEPVEKDKENFHESPRQSRQQKPASKIASAREVIKRDGVIPPEALTIIEQRLRSDPMFRQQIDNVLADAECDANRAAYSPPPPMSEVRYGSGVNPALMRETLTVERSIRYDNGLASIDSRQWTNERRDNRAPDSYRTYEPDQPCHSLYQKGQSISYYPSEAAGKTTARNNRTGYYVEDSSDHEEDVVVNKRGQNYHEQAVPETPAERERRIREKYARRK
# partner: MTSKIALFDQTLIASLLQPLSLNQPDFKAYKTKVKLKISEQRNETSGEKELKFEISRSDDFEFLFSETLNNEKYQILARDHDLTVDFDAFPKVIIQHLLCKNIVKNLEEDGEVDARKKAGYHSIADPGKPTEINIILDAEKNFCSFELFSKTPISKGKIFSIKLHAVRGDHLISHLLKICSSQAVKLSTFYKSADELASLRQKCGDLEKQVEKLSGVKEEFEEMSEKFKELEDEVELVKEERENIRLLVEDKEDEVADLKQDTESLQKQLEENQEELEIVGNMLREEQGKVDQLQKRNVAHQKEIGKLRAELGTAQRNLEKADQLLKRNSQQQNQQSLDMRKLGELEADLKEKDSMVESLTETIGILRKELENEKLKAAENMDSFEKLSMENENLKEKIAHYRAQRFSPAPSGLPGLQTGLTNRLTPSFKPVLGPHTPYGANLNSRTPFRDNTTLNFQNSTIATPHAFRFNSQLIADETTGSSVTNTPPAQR
# Variants of: B1
# Conditions: with sas6_caeel sas-6, O62479
row,effect of a mutation on the interaction,Variant
1,decreasing interaction,MNNYDDLPCSIYFKKPTVQEFVDQPRVFEDSEVPAFQEVLQLPQERTKPPVPSTQPIVAAVEVAKKKSCLSAPKPRKEPPSHPALRQKTVAFGKTVNVSQTVEGTSRNSKKVLASTMSAQNTTTTEEQAAENWRDAMKTELQTIRTEIQEETARRQEELNAQNLVKMQELMSNFFQKITIPKQQAIEPVEKDKENFHESPRQSRQQKPASKIASAREVIKRDGVIPPEALTIIEQRLRSDPMFRQQIDNVLADAECDANRAAYSPPPPMSEVRYGSGVNPALMRETLTVERSIRYDNGLASIDSRQWTNERRDNRAPDSYRTYEPDQPCHSLYQKGQSISYYPSEAAGKTTARNNRTGYYVEDSSDHEEDVVVNKRGQNYHEQAVPETPAERERRIREKYARAK [R403A]

# Variants of: B1
# Conditions: with sas6_caeel sas-6, O62479
# Remark: another data set of the same source
row,effect of a mutation on the interaction,Variant
1,disrupting interaction,MNNYDDLPCSIYFKKPTVQEFVDQPRVFEDSEVPAFQEVLQLPQERTKPPVPSTQPIVAAVEVAKKKSCLSAPKPRKEPPSHPALRQKTVAFGKTVNVSQTVEGTSRNSKKVLASTMSAQNTTTTEEQAAENWRDAMKTELQTIRTEIQEETARRQEELNAQNLVKMQELMSNFFQKITIPKQQAIEPVEKDKENFHESPRQSRQQKPASKIASAREVIKRDGVIPPEALTIIEQRLRSDPMFRQQIDNVLADAECDANRAAYSPPPPMSEVRYGSGVNPALMRETLTVERSIRYDNGLASIDSRQWTNERRDNRAPDSYRTYEPDQPCHSLYQKGQSISYYPSEAAGKTTARNNRTGYYVEDSSDHEEDVVVNKRGQNYHEQAVPETPAERERRIREKYARAK [R403A]

# Variants of: B1
# Conditions: with sas6_caeel sas-6, O62479
# Remark: another data set of the same source
row,effect of a mutation on the interaction,Variant
1,decreasing interaction,MNNYDDLPCSIYFKKPTVQEFVDQPRVFEDSEVPAFQEVLQLPQERTKPPVPSTQPIVAAVEVAKKKSCLSAPKPRKEPPSHPALRQKTVAFGKTVNVSQTVEGTSRNSKKVLASTMSAQNTTTTEEQAAENWRDAMKTELQTIRTEIQEETARRQEELNAQNLVKMQELMSNFFQKITIPKQQAIEPVEKDKENFHESPRQSRQQKPASKIASAREVIKRDGVIPPEALTIIEQRLRSDPMFRQQIDNVLADAECDANRAAYSPPPPMSEVRYGSGVNPALMRETLTVERSIRYDNGLASIDSRQWTNERRDNRAPDSYRTYEPDQPCHSLYQKGQSISYYPSEAAGKTTARNNRTGYYVEDSSDHEEDVVVNKRGQNYHEQAVPETPAERERRICEKYARRK [R397C]

# Variants of: B1
# Conditions: with sas6_caeel sas-6, O62479
# Remark: another data set of the same source
row,effect of a mutation on the interaction,Variant
1,disrupting interaction,MNNYDDLPCSIYFKKPTVQEFVDQPRVFEDSEVPAFQEVLQLPQERTKPPVPSTQPIVAAVEVAKKKSCLSAPKPRKEPPSHPALRQKTVAFGKTVNVSQTVEGTSRNSKKVLASTMSAQNTTTTEEQAAENWRDAMKTELQTIRTEIQEETARRQEELNAQNLVKMQELMSNFFQKITIPKQQAIEPVEKDKENFHESPRQSRQQKPASKIASAREVIKRDGVIPPEALTIIEQRLRSDPMFRQQIDNVLADAECDANRAAYSPPPPMSEVRYGSGVNPALMRETLTVERSIRYDNGLASIDSRQWTNERRDNRAPDSYRTYEPDQPCHSLYQKGQSISYYPSEAAGKTTARNNRTGYYVEDSSDHEEDVVVNKRGQNYHEQAVPETPAERERRICEKYARRK [R397C]

# Variants of: B1
# Conditions: with sas6_caeel sas-6, O62479
# Remark: another data set of the same source
row,effect of a mutation on the interaction,Variant
1,decreasing interaction,MNNYDDLPCSIYFKKPTVQEFVDQPRVFEDSEVPAFQEVLQLPQERTKPPVPSTQPIVAAVEVAKKKSCLSAPKPRKEPPSHPALRQKTVAFGKTVNVSQTVEGTSRNSKKVLASTMSAQNTTTTEEQAAENWRDAMKTELQTIRTEIQEETARRQEELNAQNLVKMQELMSNFFQKITIPKQQAIEPVEKDKENFHESPRQSRQQKPASKIASAREVIKRDGVIPPEALTIIEQRLRSDPMFRQQIDNVLADAECDANRAAYSPPPPMSEVRYGSGVNPALMRETLTVERSIRYDNGLASIDSRQWTNERRDNRAPDSYRTYEPDQPCHSLYQKGQSISYYPSEAAGKTTARNNRTGYYVEDSSDHEEDVVVNKRGQNYHEQAVPETPAERERRAREKYARRK [I396A]

# Variants of: B1
# Conditions: with sas6_caeel sas-6, O62479
# Remark: another data set of the same source
row,effect of a mutation on the interaction,Variant
1,disrupting interaction,MNNYDDLPCSIYFKKPTVQEFVDQPRVFEDSEVPAFQEVLQLPQERTKPPVPSTQPIVAAVEVAKKKSCLSAPKPRKEPPSHPALRQKTVAFGKTVNVSQTVEGTSRNSKKVLASTMSAQNTTTTEEQAAENWRDAMKTELQTIRTEIQEETARRQEELNAQNLVKMQELMSNFFQKITIPKQQAIEPVEKDKENFHESPRQSRQQKPASKIASAREVIKRDGVIPPEALTIIEQRLRSDPMFRQQIDNVLADAECDANRAAYSPPPPMSEVRYGSGVNPALMRETLTVERSIRYDNGLASIDSRQWTNERRDNRAPDSYRTYEPDQPCHSLYQKGQSISYYPSEAAGKTTARNNRTGYYVEDSSDHEEDVVVNKRGQNYHEQAVPETPAERERRAREKYARRK [I396A]

# Variants of: B1
# Conditions: with sas6_caeel sas-6, O62479
# Remark: another data set of the same source
row,effect of a mutation on the interaction,Variant
1,decreasing interaction,MNNYDDLPCSIYFKKPTVQEFVDQPRVFEDSEVPAFQEVLQLPQERTKPPVPSTQPIVAAVEVAKKKSCLSAPKPRKEPPSHPALRQKTVAFGKTVNVSQTVEGTSRNSKKVLASTMSAQNTTTTEEQAAENWRDAMKTELQTIRTEIQEETARRQEELNAQNLVKMQELMSNFFQKITIPKQQAIEPVEKDKENFHESPRQSRQQKPASKIASAREVIKRDGVIPPEALTIIEQRLRSDPMFRQQIDNVLADAECDANRAAYSPPPPMSEVRYGSGVNPALMRETLTVERSIRYDNGLASIDSRQWTNERRDNRAPDSYRTYEPDQPCHSLYQKGQSISYYPSEAAGKTTARNNRTGYYVEDSSDHEEDVVVNKRGQNYHEQAVPETPAERERRIREKAARRK [Y400A]

# Variants of: B1
# Conditions: with sas6_caeel sas-6, O62479
# Remark: another data set of the same source
row,effect of a mutation on the interaction,Variant
1,disrupting interaction,MNNYDDLPCSIYFKKPTVQEFVDQPRVFEDSEVPAFQEVLQLPQERTKPPVPSTQPIVAAVEVAKKKSCLSAPKPRKEPPSHPALRQKTVAFGKTVNVSQTVEGTSRNSKKVLASTMSAQNTTTTEEQAAENWRDAMKTELQTIRTEIQEETARRQEELNAQNLVKMQELMSNFFQKITIPKQQAIEPVEKDKENFHESPRQSRQQKPASKIASAREVIKRDGVIPPEALTIIEQRLRSDPMFRQQIDNVLADAECDANRAAYSPPPPMSEVRYGSGVNPALMRETLTVERSIRYDNGLASIDSRQWTNERRDNRAPDSYRTYEPDQPCHSLYQKGQSISYYPSEAAGKTTARNNRTGYYVEDSSDHEEDVVVNKRGQNYHEQAVPETPAERERRIREKAARRK [Y400A]
